{"source": "paper PMC7294096", "biological_target": "DnaJ heat shock protein family (Hsp40) member B6 (DNAJB6), wild type (human) (UniProt O75190)", "assay": "native MS; 37 μM DNAJB6 (plain or BS3-crosslinked) with 1 μM Aβ(1–40), 10 mM ammonium acetate pH 7; direct detection of DNAJB6 signals and complexes", "note": "Values joined by “and” are separate entries in the source; they are usually repeats but may differ in a detail not shown here. Identical values can stand only once."}
{"substance": "DnaJ heat shock protein family (Hsp40) member B6 (DNAJB6), wild type, O75190-2 1-241 (natural protein; other documents disagree on this pair)", "values": [{"measurement": "stoichiometry N", "result": "2 and 3"}]}
